{"source": "patent US20180030118A1", "about": "(EMERGENT BIOSOLUTIONS CANADA, published 2018)", "key": {"[1]": {"target": "T1, MARV Angola GPe (Marburg virus, strain Angola, UniProt Q1PD50 19-648)", "T1 construct": "extracellular domain; also called Marburg GP (Angola) ectodomain", "T1 sequence": "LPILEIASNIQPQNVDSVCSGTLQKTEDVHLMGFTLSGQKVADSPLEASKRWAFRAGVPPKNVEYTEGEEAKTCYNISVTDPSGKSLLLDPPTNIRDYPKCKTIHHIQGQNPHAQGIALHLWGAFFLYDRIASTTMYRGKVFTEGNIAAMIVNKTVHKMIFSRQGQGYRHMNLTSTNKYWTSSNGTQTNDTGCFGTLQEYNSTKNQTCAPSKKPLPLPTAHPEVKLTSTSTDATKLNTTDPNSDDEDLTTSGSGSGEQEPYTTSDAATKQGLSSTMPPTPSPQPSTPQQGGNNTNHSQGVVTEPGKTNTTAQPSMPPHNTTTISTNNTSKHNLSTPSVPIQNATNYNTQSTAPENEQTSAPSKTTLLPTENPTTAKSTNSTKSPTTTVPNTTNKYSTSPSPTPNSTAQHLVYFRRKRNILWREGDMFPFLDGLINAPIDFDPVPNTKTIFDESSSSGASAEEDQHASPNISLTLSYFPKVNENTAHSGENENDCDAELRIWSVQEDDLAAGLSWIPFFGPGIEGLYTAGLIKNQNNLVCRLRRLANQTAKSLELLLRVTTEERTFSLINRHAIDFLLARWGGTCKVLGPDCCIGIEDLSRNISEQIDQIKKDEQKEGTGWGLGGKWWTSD", "experiment": "ELISA on coated GPe (200 ng/well)"}, "[2]": {"target": "T2, MARV Musoke GPe (Marburg virus, strain Musoke, UniProt P35253 19-648)", "T2 construct": "extracellular domain; also called Marburg GP (Musoke) ectodomain", "T2 sequence": "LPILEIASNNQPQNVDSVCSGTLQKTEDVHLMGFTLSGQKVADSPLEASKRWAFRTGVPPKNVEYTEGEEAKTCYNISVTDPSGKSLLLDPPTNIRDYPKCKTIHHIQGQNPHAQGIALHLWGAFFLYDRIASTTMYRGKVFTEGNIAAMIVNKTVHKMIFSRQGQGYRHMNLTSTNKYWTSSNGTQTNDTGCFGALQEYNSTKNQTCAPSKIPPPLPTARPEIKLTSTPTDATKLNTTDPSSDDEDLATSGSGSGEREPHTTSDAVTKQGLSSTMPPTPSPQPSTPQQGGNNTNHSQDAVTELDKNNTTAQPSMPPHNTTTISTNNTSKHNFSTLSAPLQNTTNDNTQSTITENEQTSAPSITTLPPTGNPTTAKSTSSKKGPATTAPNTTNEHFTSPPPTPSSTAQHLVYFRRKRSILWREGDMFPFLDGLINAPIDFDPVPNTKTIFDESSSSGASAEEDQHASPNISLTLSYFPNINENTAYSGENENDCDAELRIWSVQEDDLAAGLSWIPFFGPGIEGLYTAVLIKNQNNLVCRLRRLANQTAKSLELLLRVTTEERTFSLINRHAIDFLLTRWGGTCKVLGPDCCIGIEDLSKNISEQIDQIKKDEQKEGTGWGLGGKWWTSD", "experiment": "ELISA on coated GPe (200 ng/well)"}, "[3]": {"target": "T3, MARV Ravn GPe (Marburg virus, strain Ravn, UniProt Q1PDC7 19-648)", "T3 construct": "extracellular domain; also called Marburg GP (Ravn) ectodomain", "T3 sequence": "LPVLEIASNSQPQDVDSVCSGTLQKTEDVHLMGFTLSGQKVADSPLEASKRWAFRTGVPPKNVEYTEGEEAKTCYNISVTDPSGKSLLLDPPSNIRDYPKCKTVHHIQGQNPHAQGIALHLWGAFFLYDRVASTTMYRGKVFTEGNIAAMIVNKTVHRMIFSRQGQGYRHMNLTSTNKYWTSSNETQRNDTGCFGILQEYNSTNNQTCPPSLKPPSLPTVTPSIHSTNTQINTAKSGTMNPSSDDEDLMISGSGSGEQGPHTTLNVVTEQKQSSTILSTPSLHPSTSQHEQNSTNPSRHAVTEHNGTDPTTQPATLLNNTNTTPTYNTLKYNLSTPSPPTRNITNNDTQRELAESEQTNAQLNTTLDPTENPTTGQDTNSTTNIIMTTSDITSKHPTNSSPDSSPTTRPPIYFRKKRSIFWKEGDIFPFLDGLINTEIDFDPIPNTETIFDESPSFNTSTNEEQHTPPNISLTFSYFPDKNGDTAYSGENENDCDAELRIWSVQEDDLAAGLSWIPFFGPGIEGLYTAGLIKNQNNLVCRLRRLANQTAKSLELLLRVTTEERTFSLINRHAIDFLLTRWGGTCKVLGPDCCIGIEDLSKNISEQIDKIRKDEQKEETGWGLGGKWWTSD", "experiment": "ELISA, GP coated 200 ng/well, mAb at 2 ug/mL"}, "[4]": {"target": "T1, MARV Angola GPe", "experiment": "ELISA, GP coated 200 ng/well, mAb at 2 ug/mL"}, "[5]": {"target": "T2, MARV Musoke GPe", "experiment": "ELISA, GP coated 200 ng/well, mAb at 2 ug/mL"}}}
{"binder": "muCAN30G5 (antibody, V domains shown, also called murine CAN30G5) VH: EVQLVESGGGLVQPKGSLKLSCAASGFAFNSYAMHWVCQAPGKGLEWVARIRIKSGNYATSYAGSVTDRFTVSRDDSQNLFYLQMNNLKTEDTAMYYCVREWEGAMDYWGQGTSVTVSS VL: DIVLTQSPLSLPVSLGDQASISCRSSQSLVHSNGNTYLHWYLQKPGQSPNLLIYKVSNRFSGVPDRFSGSGSGTDFTLKISRVEAEDLGVYFCSQSTHVPWTFGGGTKLEIK", "values": [{"measurement": "binding result", "setting": "[1]", "result": "no binding"}, {"measurement": "binding result", "setting": "[2]", "result": "no binding"}, {"measurement": "OD405 @ 30 min", "setting": "[3]", "result": 0.16, "unit": "OD405"}]}
{"binder": "huCAN40G1 (antibody, V domains shown, also called humanized CAN40G1) VH: EVQLQQSGPEVKKPGASVKVSCRTSGYTFTEYTIHWVKQAPGKGLEWIGGINPNHGGTLYNQKFKGRVTLTVDKSSSTAYMELSRLRSDDTAVYYCARFTYDYWGQGTLVTVSS VL: DIVLTQSPASLAVSLGERATISCKASQSVDHDGDSYMNWYQQKPGQPPKLLIYATSNLESGIPARFSGSGSGTDFTLTISSLQAEDVATYYCQQSYEVPLTFGAGTKLEIK", "values": [{"measurement": "OD405 @ 30 min", "setting": "[4]", "result": 3.83, "unit": "OD405"}, {"measurement": "OD405 @ 30 min", "setting": "[5]", "result": 2.73, "unit": "OD405"}, {"measurement": "OD405 @ 30 min", "setting": "[3]", "result": 2.75, "unit": "OD405"}]}
{"binder": "muCAN54G2 (antibody, V domains shown, also called murine CAN54G2) VH: QVQLQQSGTELVRPGTSVKISCKASGYDFTNFWLGWIKQRPGHGLEWIGDIYPGGDNTYYNEKFKGKVTLTADKSSNTAYMQFSSLTSEDSAVYFCFMILYTLDYWGQGTSVTVSS VL: not shown", "values": [{"measurement": "OD405 @ 30 min", "setting": "[4]", "result": 0.15, "unit": "OD405"}, {"measurement": "OD405 @ 30 min", "setting": "[5]", "result": 0.185, "unit": "OD405"}, {"measurement": "OD405 @ 30 min", "setting": "[3]", "result": 0.16, "unit": "OD405"}]}
{"binder": "huCAN54G2 (antibody, V domains shown, also called humanized CAN54G2) VH: QVQLQQSGTEVKKPGASVKVSCKASGYDFTNFWLGWIRQAPGQGLEWIGDIYPGGDNTYYNEKFKGRVTLTADKSSNTAYMELSSLRSEDTAVYFCFMILYTLDYWGQGTLVTVSS VL: DVVMTQTPLTLPVTLGQPASISCTSSQSLLNSDGETYLNWLLQRPGQSPKRLIHLVSKLDSGVPDRFSGSGSGTDFTLKISRVEAEDVGVYYCWQGTHFPWTFGGGTKVEIK", "values": [{"measurement": "OD405 @ 30 min", "setting": "[4]", "result": 0.502, "unit": "OD405"}, {"measurement": "OD405 @ 30 min", "setting": "[5]", "result": 0.908, "unit": "OD405"}, {"measurement": "OD405 @ 30 min", "setting": "[3]", "result": 0.89, "unit": "OD405"}]}
{"binder": "muCAN40G1 (antibody, V domains shown, also called murine CAN40G1) VH: EVQLQQSGPELVKPGASVKISCRTSGYTFTEYTIHWVKQSRGKSLEWIGGINPNHGGTLYNQKFKVKATLTVDKSSSTAYMELRSLTSEDSAVYYCARFTYDYWGQGTTLTVSS VL: DIVLTQSPASLAVSLGQRASISCKASQSVDHDGDSYMNWYQQKPGQPPKLLIYATSNLESGIPARFSGSGSGTDFTLNIHPVEEEDAATYYCQQSYEVPLTFGAGTKLELK", "values": [{"measurement": "OD405 @ 30 min", "setting": "[4]", "result": 0.857, "unit": "OD405"}, {"measurement": "OD405 @ 30 min", "setting": "[5]", "result": 0.536, "unit": "OD405"}, {"measurement": "OD405 @ 30 min", "setting": "[3]", "result": 0.504, "unit": "OD405"}]}
{"binder": "huCAN30G5 (antibody, V domains shown, also called humanized CAN30G5) VH: EVQLVESGGGLVQPGGSLKLSCAASGFAFNSYAMHWVRQASGKGLEWVARIRIKSGNYATSYAGSVKGRFTVSRDDSKNTFYLQMNSLKTEDTAMYYCVREWEGAMDYWGQGTLVTVSS VL: DIVLTQSPLSLPVTLGQPASISCRSSQSLVHSNGNTYLHWYQQRPGQSPRLLIYKVSNRFSGVPDRFSGSGSGTDFTLKISRVEAEDVGVYYCSQSTHVPWTFGGGTKVEIK", "values": [{"measurement": "binding result", "setting": "[1]", "result": "no binding"}, {"measurement": "binding result", "setting": "[2]", "result": "no binding"}, {"measurement": "OD405 @ 30 min", "setting": "[3]", "result": 2.74, "unit": "OD405"}]}
